Measurements taken from US20180230457A1 (published 2018).

Tests used:
[1] = biological target: T1, bovine pancreatic RNase A (bovine, UniProt P61823 27-150); assay: ITC, 25 C, RNase A binding with 1 mM nickel present
T1 construct: mature; Commercial purified protein; Used unmodified in ITC and as plate coat; biotinylated only for phage selection
T1 sequence (looked up): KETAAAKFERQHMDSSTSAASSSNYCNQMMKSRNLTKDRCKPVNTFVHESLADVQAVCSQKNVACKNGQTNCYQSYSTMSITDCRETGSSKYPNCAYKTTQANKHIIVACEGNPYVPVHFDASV
Protocol: (§1) The binding parameters (K, ΔH°, ΔS°, and n) were determined using the single site binding model using the ITC add-in in Origin version 7 (MicroCal LLC). All titrations indicated a 1:1 interaction with observed stoichiometries equal to 1.0 (within 5%).
(§2) ITC experiments were performed using a MicroCal VP-ITC (MicroCal, LLC, Northampton, Mass.). All experiments were performed at 25° C. Proteins were dialyzed against the desired experimental buffer, which included PBS (20 mM NaPhosphate, 150 mM NaCl pH 7.4), TBS (20 mM Tris-HCl, 150 mM NaCl pH 7.4) and TBS-E (20 mM Tris, 150 mM NaCl, 1 mM EDTA, pH 7.4). For direct titration of NiCl₂ into the VHHmetal variant, concentrations were 2 mM and 200 μM for NiCl₂ and VHH, respectively. Based on the observed binding constant, this corresponds to a “cvalue” of 6.7, which is within the commonly acceptable range for the accurate determination of binding thermodynamics (Tellinghuisen, 2008; Wiseman et al. 1989). For competitive titrations, nickel was included in TBS without EDTA at concentrations ranging from 0-10 mM. Competitive VHH/RNase A titration experiments with a “c” value greater than 10 included protein concentrations ranging from 30 μM to 205 μM. Conditions included a 10-fold higher concentration of titrant (VHH). […] These experiments included using a 100-fold higher concentration of titrant (RNase A) relative to VHH. RNase A concentrations were between 150 μM and 800 μM. Extinction coefficients were determined using values determined by the methods described by Pace, et. al. (1995). […] For nickel/VHH titrations, the titrant nickel was dissolved in the appropriate dialysis buffer at a 10× concentration of the VHH. Experiments typically included 27, 10 μL injections with a 240 second delay between each injection. Dilution titrations indicated the absence of significant heats of dilution, consequently, no background dilution heat subtractions were necessary. The binding parameters (K, ΔH°, ΔS°, and n) were determined using the single site binding model using the ITC add-in in Origin version 7 (MicroCal LLC).

[2] = biological target: T1, bovine pancreatic RNase A; assay: ITC, 25 C, no metal
Protocol: (§3) ITC experiments were performed using a MicroCal VP-ITC (MicroCal, LLC, Northampton, Mass.). All experiments were performed at 25° C. Proteins were dialyzed against the desired experimental buffer, which included PBS (20 mM NaPhosphate, 150 mM NaCl pH 7.4), TBS (20 mM Tris-HCl, 150 mM NaCl pH 7.4) and TBS-E (20 mM Tris, 150 mM NaCl, 1 mM EDTA, pH 7.4). For direct titration of NiCl₂ into the VHH-metal variant, concentrations were 2 mM and 200 μM for NiCl2 and VHH, respectively. Based on the observed binding constant, this corresponds to a “c-value” of 6.7, which is within the commonly acceptable range for the accurate determination of binding thermodynamics. For competitive titrations, nickel was included in TBS without EDTA at concentrations ranging from 0-10 mM. Competitive VHH/RNase A titration experiments with a “c” value greater than 10 included protein concentrations ranging from 30 μM to 205 μM. Conditions included a 10-fold higher concentration of titrant (VHH). […] These experiments included using a 100-fold higher concentration of titrant (RNase A) relative to VHH. RNase A concentrations were between 150 μM and 800 μM. […] For nickel/VHH titrations, the titrant nickel was dissolved in the appropriate dialysis buffer at a 10× concentration of the VHH. Experiments typically included 27, 10 μL injections with a 240 second delay between each injection. Dilution titrations indicated the absence of significant heats of dilution, consequently, no background dilution heat subtractions were necessary. The binding parameters (K, ΔH°, ΔS°, and n) were determined using the single site binding model using the ITC add-in in Origin version 7 (MicroCal LLC).

[3] = biological target: T1, bovine pancreatic RNase A; assay: ITC, pH 7.4, against wild-type VHH
[4] = biological target: T1, bovine pancreatic RNase A; assay: ITC, pH 6, PBS
[5] = biological target: T1, bovine pancreatic RNase A; assay: ITC, pH 5, piperazine
[6] = biological target: T1, bovine pancreatic RNase A; assay: ITC, pH 8, TRIS
[7] = biological target: T1, bovine pancreatic RNase A; assay: ITC, pH 5.5, acetate
[8] = biological target: T1, bovine pancreatic RNase A; assay: ITC, pH 7, PBS
[9] = biological target: T1, bovine pancreatic RNase A; assay: ITC, pH 4.74, piperazine
[10] = biological target: T1, bovine pancreatic RNase A; assay: ITC, pH profile 8.0 to 4.5
[11] = biological target: T1, bovine pancreatic RNase A; assay: ITC, pH 7.4, PBS
[12] = biological target: T1, bovine pancreatic RNase A; assay: ITC, pH 6.5, imidazole
[13] = biological target: T1, bovine pancreatic RNase A; assay: ITC, pH 4.5, piperazine
[14] = biological target: T1, bovine pancreatic RNase A; assay: ITC, pH 7.4
[15] = biological target: T1, bovine pancreatic RNase A; assay: ITC, 25 C, RNase A binding with 10 µM nickel present
Protocol: as §1, §2

[16] = biological target: T1, bovine pancreatic RNase A; assay: ITC, 25 C, pH 7.4, no metal
Protocol: as §3

[17] = biological target: T1, bovine pancreatic RNase A; assay: competitive phage ELISA with and without 1 mM metals (Zn2+, Co2+, Ni2+)
[18] = biological target: T1, bovine pancreatic RNase A; assay: ITC, 25 C, RNase A binding with 10 mM nickel present
Protocol: as §1, §2

[19] = biological target: T1, bovine pancreatic RNase A; assay: ITC, 25 C, no metal; remark: listed apart in the source
Protocol: (§4) Isothermal titration calorimetry (ITC) was used to evaluate the thermodynamic basis for VHH-metal's dual function. […] As expected, titrations of nickel into wild-type anti-RNase A VHH produced no measurable binding.
(§5) ITC experiments were performed using a MicroCal VP-ITC (MicroCal, LLC, Northampton, Mass.). All experiments were performed at 25° C. Proteins were dialyzed against the desired experimental buffer, which included PBS (20 mM NaPhosphate, 150 mM NaCl pH 7.4), TBS (20 mM Tris-HCl, 150 mM NaCl pH 7.4) and TBS-E (20 mM Tris, 150 mM NaCl, 1 mM EDTA, pH 7.4). For direct titration of NiCl₂ into the VHH-metal variant, concentrations were 2 mM and 200 μM for NiCl2 and VHH, respectively. Based on the observed binding constant, this corresponds to a “c-value” of 6.7, which is within the commonly acceptable range for the accurate determination of binding thermodynamics. For competitive titrations, nickel was included in TBS without EDTA at concentrations ranging from 0-10 mM. Competitive VHH/RNase A titration experiments with a “c” value greater than 10 included protein concentrations ranging from 30 μM to 205 μM. Conditions included a 10-fold higher concentration of titrant (VHH).

[20] = biological target: T1, bovine pancreatic RNase A; assay: ITC, 25 C, RNase A binding with 100 µM nickel present
[21] = biological target: T1, bovine pancreatic RNase A; assay: ITC, 25 C, RNase A binding with 1 µM nickel present
Protocol: as §1, §2

[22] = biological target: T1, bovine pancreatic RNase A; assay: ITC, 25 C, no metal, against wild-type VHH
Protocol: as §4, §5

B1: wild-type anti-RNase A VHH (cAb-RN05) (VHH)
VHH: QVQLVESGGGLVQAGGSLRLSCAASGYAYTYIYMGWFRQAPGKEREGVAAMDSGGGGTLYADSVKGRFTISRDKGKNTVYLQMDSLKPEDTATYYCAAGGGYELRDRTYGQWGQGTQVTVSS
notes: Camelid single-domain antibody; Made in E. coli with an N-terminal hexa-His-TEV tag for ITC; also called VHH-wt; wt-VHH
With B1 the “-TΔS°” value [1] was 0.9 kcal/mol, the Kd [1] was 16 nM and the “ΔG°” value [1] was -10.6 kcal/mol. For the same binder, the “ΔH°” value [1] was -10.7 kcal/mol, the “-TΔS°” value [2] was 1.9 kcal/mol and the Kd [2] was 19 nM. For the same binder, the “ΔG°” value [2] was -10.5 kcal/mol and the “ΔH°” value [2] was -12.4 kcal/mol.

B2: VHH#24 (pH clone #24) (VHH)
VHH: QVQLVESGGGLVQAGGSLRLSCAASGYHHTYIYMGWFRQAPGKEREGVAAMDSGGGGTLYADSVKGRFTISRDKGKNTVYLQMDSLKPEDTATYYCAAGGGHHLRDHTYGQWGQGTQVTVSS
With B2 the “fold difference of binding affinity from the wild-type value” [3] was at most 5 fold, the “-TΔS” value [4] was -8.6 kcal/mol and the Kd [4] was 6500 nM. The ΔG [4] was -7.07 kcal/mol, the ΔH [4] was 1.5 kcal/mol and the “-TΔS” value [5] was -2.4 kcal/mol. For the same binder, the Kd [5] was 12000 nM, the ΔG [5] was -7.03 kcal/mol and the ΔH [5] was -4.8 kcal/mol. The “-TΔS” value [6] was -3.8 kcal/mol, the Kd [6] was 100 nM and the ΔG [6] was -9.37 kcal/mol. For the same binder, the ΔH [6] was -9 kcal/mol, the Kd [7] was 6300 nM and the ΔG [7] was -7.09 kcal/mol. For the same binder, the ΔH [7] was 3 kcal/mol, the “-TΔS” value [8] was 0.7 kcal/mol and the Kd [8] was 200 nM. For the same binder, the ΔG [8] was -9.07 kcal/mol, the ΔH [8] was -4.35 kcal/mol and the “-TΔS” value [9] was 6.8 kcal/mol. The Kd [9] was 75000 nM, the ΔG [9] was -5.62 kcal/mol and the ΔH [9] was -12.4 kcal/mol. The “fold decrease of the observed binding constant on decreasing the pH” value [10] was about 10000 fold, the “-TΔS” value [11] was -2.5 kcal/mol and the Kd [11] was 200 nM. For the same binder, the ΔG [11] was -9.31 kcal/mol, the ΔH [11] was -6.84 kcal/mol and the Kd [12] was 400 nM. For the same binder, the ΔG [12] was -8.73 kcal/mol, the ΔH [12] was -9.44 kcal/mol and the “-TΔS” value [13] was 25.4 kcal/mol. It also gave a ΔG [13] of -5.11 kcal/mol, a ΔH [13] of -30 kcal/mol and a Kd [14] of 91 nM.

B3: VHH-metal (metal sensitive anti-RNase A VHH) (VHH)
VHH: QVQLVESGGGLVQAGGSLRLSCAASGYPHPYLHMGWFRQAPGKEREGVAAMDSGGGGTLYADSVKGRFTISRDKGKNTVYLQMDSLKPEDTATYYCAAGGGYQLRDRTYGHWGQGTQVTVSS
notes: also called Metal-VHH; metal clone VHH
In the case of B3, the “-TΔS°” value [15] is reported as 3.6 kcal/mol, the Kd [15] is reported as 219 nM and the “ΔG°” value [15] is reported as -9.1 kcal/mol. The “ΔH°” value [15] was -12.7 kcal/mol, the “-TΔS°” value [1] was 0.09 kcal/mol and the Kd [1] was 5640 nM. For the same binder, the “ΔG°” value [1] was -7.13 kcal/mol, the “ΔH°” value [1] was -7.2 kcal/mol and the “-TΔS°” value [16] was 9 kcal/mol. The Kd [16] was 157 nM, the “ΔG°” value [16] was -9.3 kcal/mol and the “ΔH°” value [16] was -17.8 kcal/mol. For the same binder, the “fold change in IC50” value [17] was 1000 fold, the “-TΔS°” value [18] was 1.3 kcal/mol and the Kd [18] was 34000 nM. The “ΔG°” value [18] was -6.07 kcal/mol, the “ΔH°” value [18] was -7.3 kcal/mol and the Kd [19] was 155 nM. For the same binder, the “-TΔS°” value [20] was -1 kcal/mol, the Kd [20] was 900 nM and the “ΔG°” value [20] was -8.27 kcal/mol. The “ΔH°” value [20] was -7 kcal/mol, the “-TΔS°” value [21] was 8 kcal/mol and the Kd [21] was 160 nM. The “ΔG°” value [21] was -9.27 kcal/mol, the “ΔH°” value [21] was -17.2 kcal/mol and the “fold decrease in binding affinity against wild type” value [22] was about 8 fold. The “ΔΔG°” value [22] was 1.2 kcal/mol.
